Among the data in US20220403392 (published 2022) are activity values, retold here.

The data set has as its target thrombin (Homo sapiens, UniProt P00734;P00734 P00734:328-363,P00734:364-622). Nature of the data set: inhibition; TT, plasma alone 16.3 s; about 0.5 uM in human plasma, 37 C.

Numbering of substitutions follows the chain as printed.

B1: RA 5'3' + 5'3' fiber (mixed)
DNA 1: GGTTGGTGTGGTTGGTGGTTGGTGTGGTTGGTTTTCCCTTTAGGGAATGACCCTGAAGTTCATCTGCACCACCGAGGGAAATCCCTTTTTGGTTGGTGTGGTTGGTGGTTGGTGTGGTTGG
DNA 2: B1 DNA 1 with C36T, T39C, T41A, G43A, A46G, G76A, A79G, A81T, C83T, T86C
DNA 3: CGGTGGTGCAGATGAACTTCAGGGTCA
Turning to B1, the activity was greater than 60 s.

B2: NU 3' + 5' fiber (mixed)
DNA 1: TCCCTTTAGGGAATGACCCTGAAGTTCATCTGCACCACCGAGGGAAATCCCTTTTTCGCCTAGGTTGGGTAGGGTGGTGGCG
DNA 2: CGCCTAGGTTGGGTAGGGTGGTGGCGTTTTTCCCTAAAGGGATGACCCTGAAGTTCATCTGCACCACCGAAGGGATTTCCCT
DNA 3: CGGTGGTGCAGATGAACTTCAGGGTCA
Turning to B2, the activity was greater than 60 s.

B3: RA 5' + 5' fiber (mixed)
DNA 1: GGTTGGTGTGGTTGGTGGTTGGTGTGGTTGGTTTTCCCTTTAGGGAATGACCCTGAAGTTCATCTGCACCACCGAGGGAAATCCCTT
DNA 2: B3 DNA 1 with C36T, T39C, T41A, G43A, A46G, G76A, A79G, A81T, C83T, T86C
DNA 3: CGGTGGTGCAGATGAACTTCAGGGTCA
In turn, B3 had an activity greater than 60 s.

B4: RA 5' + 3' fiber (mixed)
DNA 1: B3 DNA 1
DNA 2: TTCCCTAAAGGGATGACCCTGAAGTTCATCTGCACCACCGAAGGGATTTCCCTTTTGGTTGGTGTGGTTGGTGGTTGGTGTGGTTGG
DNA 3: CGGTGGTGCAGATGAACTTCAGGGTCA
B4 registered an activity greater than 60 s.

B5: RA 3' + 3' fiber (mixed)
DNA 1: B4 DNA 2 with T2C, C5T, A7T, A9G, G12A, A42G, G45A, T47A, T49C, C52T
DNA 2: B4 DNA 2
DNA 3: CGGTGGTGCAGATGAACTTCAGGGTCA
On to B5, for which the activity is greater than 60 s.
